This is an account of results in patent US20210395372A1.

pKd: −log10 of the molar value.

Assay [1] addresses human Met-Fc chimera (human) (UniProt P08581). As to the kind of experiment: ELISA. (ELISA stands for enzyme-linked immunosorbent assay.)
In assay [2] the target is human Met receptor on cells (human) (UniProt P08581). As to the kind of experiment: cell-based or functional assay.
human Met receptor on cells (human), sequence (P08581 25-1390): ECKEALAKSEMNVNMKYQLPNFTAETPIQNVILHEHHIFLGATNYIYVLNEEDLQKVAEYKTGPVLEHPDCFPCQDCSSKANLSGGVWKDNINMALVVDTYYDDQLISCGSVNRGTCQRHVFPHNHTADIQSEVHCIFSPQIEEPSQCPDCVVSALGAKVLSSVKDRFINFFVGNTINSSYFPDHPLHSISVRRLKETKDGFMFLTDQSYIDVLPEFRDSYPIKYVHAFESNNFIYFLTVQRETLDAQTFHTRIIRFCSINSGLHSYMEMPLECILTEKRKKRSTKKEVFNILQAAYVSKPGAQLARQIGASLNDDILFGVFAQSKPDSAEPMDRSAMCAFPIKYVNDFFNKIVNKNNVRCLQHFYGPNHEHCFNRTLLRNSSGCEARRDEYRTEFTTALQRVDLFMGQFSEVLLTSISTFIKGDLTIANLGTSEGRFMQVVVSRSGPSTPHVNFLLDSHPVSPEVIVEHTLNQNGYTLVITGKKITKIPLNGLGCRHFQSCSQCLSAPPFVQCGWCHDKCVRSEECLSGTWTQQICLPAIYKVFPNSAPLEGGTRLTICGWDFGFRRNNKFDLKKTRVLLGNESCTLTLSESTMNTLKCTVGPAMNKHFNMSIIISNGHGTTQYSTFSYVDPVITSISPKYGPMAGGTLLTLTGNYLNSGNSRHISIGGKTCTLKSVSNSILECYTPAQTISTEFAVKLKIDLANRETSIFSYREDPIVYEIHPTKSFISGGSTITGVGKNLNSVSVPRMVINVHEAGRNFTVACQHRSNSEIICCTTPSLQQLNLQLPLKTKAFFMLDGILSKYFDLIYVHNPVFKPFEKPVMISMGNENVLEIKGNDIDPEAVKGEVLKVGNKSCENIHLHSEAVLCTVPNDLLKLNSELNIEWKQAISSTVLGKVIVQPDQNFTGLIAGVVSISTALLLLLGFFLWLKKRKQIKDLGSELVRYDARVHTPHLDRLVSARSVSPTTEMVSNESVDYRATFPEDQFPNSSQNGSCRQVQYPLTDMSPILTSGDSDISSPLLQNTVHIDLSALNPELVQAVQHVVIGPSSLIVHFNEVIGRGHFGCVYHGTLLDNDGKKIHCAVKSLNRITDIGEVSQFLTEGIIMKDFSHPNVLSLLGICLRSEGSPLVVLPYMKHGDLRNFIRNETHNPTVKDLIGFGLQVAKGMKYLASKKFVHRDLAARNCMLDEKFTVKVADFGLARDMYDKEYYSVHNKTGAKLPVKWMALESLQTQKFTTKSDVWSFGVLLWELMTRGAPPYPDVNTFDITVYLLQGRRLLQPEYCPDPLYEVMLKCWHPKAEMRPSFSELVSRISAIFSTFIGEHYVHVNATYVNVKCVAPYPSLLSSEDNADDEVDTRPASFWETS

human Met-Fc chimera (human), sequence (P08581 25-932, change not shown): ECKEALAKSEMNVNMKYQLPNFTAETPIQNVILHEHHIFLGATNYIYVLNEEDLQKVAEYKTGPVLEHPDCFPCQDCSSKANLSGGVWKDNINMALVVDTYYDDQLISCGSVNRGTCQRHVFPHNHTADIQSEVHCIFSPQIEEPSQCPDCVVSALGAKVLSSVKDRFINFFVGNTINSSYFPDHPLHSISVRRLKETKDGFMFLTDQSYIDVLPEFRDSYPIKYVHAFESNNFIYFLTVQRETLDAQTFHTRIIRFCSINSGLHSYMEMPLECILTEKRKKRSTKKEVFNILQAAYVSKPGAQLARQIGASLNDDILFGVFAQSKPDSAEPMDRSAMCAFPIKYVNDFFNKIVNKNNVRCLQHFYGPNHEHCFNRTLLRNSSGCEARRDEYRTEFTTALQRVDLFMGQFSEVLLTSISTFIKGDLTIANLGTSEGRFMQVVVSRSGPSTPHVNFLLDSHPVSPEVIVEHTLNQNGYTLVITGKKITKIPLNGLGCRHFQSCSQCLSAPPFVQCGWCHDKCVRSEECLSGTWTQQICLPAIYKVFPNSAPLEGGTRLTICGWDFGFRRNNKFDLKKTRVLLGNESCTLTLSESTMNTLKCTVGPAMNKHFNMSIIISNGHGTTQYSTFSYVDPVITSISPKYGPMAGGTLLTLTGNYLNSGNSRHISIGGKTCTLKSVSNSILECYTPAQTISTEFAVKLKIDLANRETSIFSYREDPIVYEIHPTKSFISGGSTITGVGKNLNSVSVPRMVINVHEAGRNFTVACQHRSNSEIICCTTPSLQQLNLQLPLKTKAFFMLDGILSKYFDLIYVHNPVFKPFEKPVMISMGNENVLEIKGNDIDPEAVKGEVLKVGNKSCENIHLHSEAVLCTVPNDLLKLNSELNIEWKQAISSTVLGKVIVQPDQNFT

On to chOA-DN30, for which, in assay [1], the pKd is 9.50. In assay [2], chOA-DN30 (antibody) displayed a percentage of GTL-16 cells in S phase (EdU), 1 uM antibody of 15% and a reduction of proliferating GTL-16 cells versus control (EdU), 1 uM antibody of 52%.

For orientation: pKd means the negative decadic logarithm of the Kd, by convention in mol/L. A high value points to a small Kd.
